Measured values taken from paper PMC13169712, “Structural determinants of peanut-induced anaphylaxis” (The Journal of allergy and clinical immunology, 2025).
Blank lines part the entries; values can stand above or below the binder they belong to.

Legend:
Details in all cases: both partners purified
[1] = molecular target: T1, recombinant Ara h 2.01 (Arachis hypogaea, Ara h 2.01, UniProt Q6PSU2;PDB, strain); assay: SPR; Carterra LSA; antibody as ligand, allergen or peptide as analyte; how the antibody was held for these pairs is not told
T1 construct: also called rArah2.01; source: HEK cell-produced, recombinant

[2] = molecular target: T2, recombinant Ara h 2.02 (Arachis hypogaea, Ara h 2.02, UniProt Q6PSU2, strain); assay: SPR; Carterra LSA; antibodies noncovalently bound to PAGHC30M (Protein A/G) sensor chips; analyte at 0.16, 0.8, 4, 20, 100 and 500 nM in HBS-TE, 0.05% BSA; 5 min association, 15 min dissociation
T2 construct: also called rArah2.02; source: recombinant

[3] = molecular target: T3, rAra h 2 with the DPYSPS-containing loop deleted (Arachis hypogaea, Ara h 2.01 background, UniProt Q6PSU2;PDB, point mutant); assay: as above
T3 construct: also called rAra h 2_loopdel; rArah2_loopdel

[4] = molecular target: T4, recombinant Ara h 6 (Arachis hypogaea, UniProt Q647G9); assay: as above
T4 construct: Ara h 6, Arachis hypogaea; May be the same construct as Ara h 6c; also called rAra h 6; rArah6; source: recombinant

[5] = molecular target: T2, recombinant Ara h 2.02; assay: SPR; Carterra LSA; antibody as ligand, allergen or peptide as analyte; how the antibody was held for these pairs is not told

- Kd [1]: 0.065 nM
- koff [1]: 5.63e-05 s⁻¹
- kon [1]: 872000 M⁻¹ s⁻¹
- Kd [2]: 0.036 nM
- koff [2]: 3.82e-05 s⁻¹
- kon [2]: 1.35e+06 M⁻¹ s⁻¹
- Kd [3]: 0.017 nM
- koff [3]: 3.69e-05 s⁻¹
- kon [3]: 2.22e+06 M⁻¹ s⁻¹
- Kd [4]: 0.036 nM
- koff [4]: 8.57e-05 s⁻¹
- kon [4]: 2.39e+06 M⁻¹ s⁻¹
B1: 16A8 human IgE mAb (antibody, V domains shown)
VH: QVQLVQSGPDVRKPGATVKVSCQTSGYRFTDYEMNWVRQAPGQGLEWIGLINPHSGDTAYAQKFQGRVTMTSDTSDSTVYLELSGLTPDDTAVYYCARSQGTFEVYYFVSWGQGSLVTVSS
VL: SYVLTQPPSMSVAPGTTASIPCGANNIAKKRVHWYRQKPGQAPVVVVSDDEDRSSVIPDRFSGSKSGDTATLTISRVEAGDEGDYYCQVWDSKTDHVVFGGGTKVTVL
notes: variable region as in the heavy chain of m1; human IgE heavy chain constant region; as the light chain of m1; In the SPR some pairs used antibody captured on a Protein A/G chip; also called 16A8 antibody

- Kd [1]: 30 nM
- koff [1]: 0.000459 s⁻¹
- kon [1]: 15500 M⁻¹ s⁻¹
- Kd [5]: 3.5 nM
- koff [5]: 0.000474 s⁻¹
- kon [5]: 165000 M⁻¹ s⁻¹
B2: 38B7 human IgE mAb (antibody, V domains shown)
VH: QVQLVESGGGVVQPGRSLRLSCVGSGFTFRRDAKYWVRQAPGKGLEWVAAISHDGGEEDYAESVKGRFTISRDNSRETVYLEMNSLRPEDTAVYYCATTRSGWYFDYWGQGALVTVSS
VL: EIVLTQSPATLSLSPGARATLSCRASQSVDTYLAWYQQRRGQSPRLLIYDASKRATGIPARFSGSGSGTDFTLTISSLEPEDFAVYYCQQRNNWRTWTFGQGTKVEIN
notes: variable region as in the heavy chain of m5; human IgE heavy chain constant region; as the light chain of m5; In the SPR some pairs used antibody captured on a Protein A/G chip; also called IgE mAb 38B7; 38B7 IgE
- binding result [4]: no binding (tested: 500 nM (highest analyte concentration))
